The experiment addresses T1, HA-MDM2 full-length (1–491) (human, UniProt Q00987 1-491).
T1 construct: Cloned into a T7 promotor-HA expression vector; also called HA-tagged full-length MDM2; source: E. coli BL21 (DE3), purified (His-tag purification kit)
Kind of experiment: pull-down; about 100 µg of a mixture of GST, GST-S100A6 or its fragments with HA-MDM2 or its fragments on 100 µL glutathione agarose, overnight at 4 °C; blot with anti-HA. Particulars: both partners purified.

B1: GST-S100A6 EF-hand I (1–47) (domain or fragment)
chain: not shown
notes: S100A6, human, EF-hand I, residues 1–47; also called N-terminal EF-hand of S100A6; source: E. coli BL21 (DE3), purified (GST-tag purification kit)
In the case of B1, the binding result is given as “binds”.

B2: GST-S100A6 EF-hand II (48–90) (domain or fragment)
chain: not shown
notes: S100A6, human, EF-hand II, residues 48–90; also called C-terminal EF-hand of S100A6; source: E. coli BL21 (DE3), purified (GST-tag purification kit)
In the case of B2, the binding result is reported as “binds”.

The values are drawn from PMC10204293, “S100A6 inhibits MDM2 to suppress breast cancer growth and enhance sensitivity to chemotherapy” (Breast Cancer Research : BCR, 2023).
